Data as given in patent publication US11407811B2, “Fusion protein, preparation method therefor and use thereof” (JIANGSU RONGTAI BIOTECH CO., LTD., priority 2017, dated 2022).

Key:
Assay type in all cases: in vivo
[1] = system: choroidal blood flow in rabbit eyes; experiment: Choroidal blood flow in rabbit eyes (color microsphere technique); settings: 128 μg intravitreal injection; for Blood flow: rabbit eyes with high intraocular pressure
Method: New Zealand white rabbits with weight of 2.5-3.0 kg were randomly divided into […], which were labeled as a control group, and fusion protein I, protein II, protein III, protein IV, and protein V groups. White rabbits in each group were anesthetized with 35 mg/kg xylazine via intramuscular injection, and then anesthesia was maintained with half of the initial amount via intramuscular injection per hour. The intraocular pressure of the left eye was increased to 40 mmHg, under which the blood flow can be reduced to ⅓ of the normal value. The left ventricle was cannulated through right carotid artery for injection of microspheres (for the calculation of ocular blood flow), and the femoral artery was cannulated for blood collection. Each group was given physiological saline, 128 μg of fusion protein I, 128 μg of protein II, 128 μg of protein III, 128 μg of protein IV, and 128 μg of protein V via intravitreal injection. The ocular blood flow of rabbit eyes with high intraocular pressure was measured by a color microsphere technique at 0, 30, and 60 minutes after administration. At each time point, 0.2 mL (about 2 million) of microspheres were injected. Immediately after the microspheres were injected, blood was collected through the femoral artery for 60 seconds, and placed in a heparinized anticoagulant tube, and the amount of blood collected was recorded. After the last blood collection, the animals were sacrificed with 100 mg/kg phenobarbital via intravenous infusion. The eyeballs were removed, and the retina, choroid, iris and ciliary body were separated, and the tissue weight was recorded. The tissue blood flow at each time point was calculated with the following formula: Qm=(Cm×Qr)/Cr, where Qm represented tissue blood flow in μL/min/mg; Cm was the number of microspheres per milligram of tissue; Qr was blood flow in μL/min; and Cr was the number of blood microspheres as a reference.

[2] = system: corneal neovascularization in mice; experiment: Corneal neovascularization induced by alkali burn in BALB/c mice (MVD, CD31)
Text: 15 healthy male BALB/c mice with weight of 20-25 g were examined under a slit lamp microscope for the anterior segment of both eyes and the appendage to exclude ocular lesions. The eyes were given 0.3% loxacin eye drops 1 day before the preparation of alkali burn model, twice a day. After the mice were anesthetized by intraperitoneal injection of 1.8% Avertin, single-layer filter paper with a diameter of 2 mm was clamped with tweezers, and immersed in a 1 mol/L sodium hydroxide solution to reach a saturated state, and the excess liquid was removed. […]
15 mice were randomly divided into […], with 5 rats in each group. […] On day 14 after alkali burn, the neovascularization of the corneal in each group was photographed and recorded under the slit lamp microscope for photographing anterior segment of the eye. […] The blood was washed with physiological saline, and the eyeballs were fixed in 4% paraformaldehyde for 1.5 h, dehydrated in PBS containing 30% sucrose overnight, embedded in an OCT tissue freezing medium, stored in a refrigerator at −80° C., subjected to cryosection at […] and detected by immunohistochemistry for CD31 expression.
Microvessel density (MVD) is an indicator for evaluating angiogenesis. […] The number of new blood vessels in the entire section was counted under a 10×20 microscope. […]

tampon granuloma in rat = system: tampon granuloma in rat
Method: 40 parts of degreasing cotton, 30 mg for each part, were accurately weighed with an analytical balance and kneaded into balls having substantially the same shape and size, which were autoclaved at […] for 30 min and dried at 50° C. for further use.
40 male SD rats were randomly divided into 4 groups with 10 rats for each group. […] Rats were anesthetized with sodium pentobarbital (40 mg/kg) via intraperitoneal injection before administration. The abdominal coat was cut off, and the skin of middle of the lower abdomen was cut under sterile conditions. The incision was about 1 cm long and the subcutaneous tissue was expanded with a vascular clamp. A sterile dry tampon was subcutaneously implanted into one side of the groin, the incision was sutured, and an appropriate amount of amoxicillin was spread at the incision to prevent infection. After the surgery was finished, the groups were administered once by injection from the day of surgery (EDSM needed to be administered twice a day). The rats were sacrificed by cervical dislocation at the 24th hour after administration, the inguinal skin was cut, the tampon was taken out together with the surrounding granulation tissue and the surrounding tissue was removed. After drying for additional 48 h in an oven at 60° C., the weight was accurately weighed. The granuloma weight was calculated: granuloma weight (mg/100 g body weight)=net weight of granulation (mg)/rat body weight (100 g).

[3] = system: diabetic retinopathy rat model; experiment: Neovascularization in diabetic retinopathy rat model (STZ); settings: 100 μg dose, intravitreal injection
Method: The experimental diabetic rat model was established with streptozotocin STZ. STZ was dissolved in 0.1 mol/L citrate buffer at pH 4.5 to prepare a 2% solution. All experimental Wistar rats were fasted for 12 h before injection, and each rat was intraperitoneally injected with a 2% STZ solution at a dose of 65 mg/kg. After the injection, the rats were fed in single cages, and urine sugar and blood sugar were detected at the 48th hour. When urine sugar was +++ or above, and blood glucose was higher than 16.7 mmol/L, the model establishment requirement is reached. The diabetic retinopathy model was successfully established by detecting blood glucose, urine glucose, and urine volume and retinal VEGF immunohistochemistry.
15 rats were randomly divided into […], which were labeled as a control group, and fusion protein I, protein II, protein III, protein IV and protein V treatment groups. The administration was performed via intravitreal injection once every 5 days for 2 weeks, in which the control group was injected with physiological saline (0.1 mL), and the fusion protein I, protein II, protein III, protein IV, and protein V were all administered with 100 μg (0.1 mL). Observation was performed on week 4, week 8, and week 12.

B1: Protein II: IgG2-Fc linked to antiangiogenesis polypeptide EDSM-Y via a flexible linker; SEQ ID NO: 17 (protein)
chain: ERKCCVECPPCPAPPVAGPSVFLFPPKPKDTLMISRTPEVTCVVVDVSHEDPEVQFNWYVDGVEVHNAKTKPREEQFNSTFRVVSVLTVVHQDWLNGKEYKCKVSNKGLPAPIEKTISKTKGQPREPQVYTLPPSREEMTKNQVSLTCLVKGFYPSDISVEWESNGQPENNYKTTPPMLDSDGSFFLYSKLTVDKSRWQQGNVFSCSVMHEALHNHYTQKSLSLSPGKGGGGSGGGGSGGGGSFQPVLHLVALNSPLSGGMRGIRGADFQCFQQARAVGLAGTFRAGGGGRGD
B1 gave a Blood flow ([1]; 0 min after administration) of 22.9 ± 2.5 µL/min/mg, a Blood flow ([1]; 30 min after administration) of 15.7 ± 1.3 µL/min/mg and a Blood flow ([1]; 60 min after administration) of 13.9 ± 1.2 µL/min/mg. The choroidal blood flow ([1]; all observation time points) was “significantly increased”, the “number of CD31-positive new blood vessels” value ([2]; compared with the control group) was “significantly reduced” and the MVD ([2]; dose 64 μg, intravitreal injection, day 14 after alkali burn) was 24.64 ± 4.24. The “inhibition of tampon granuloma in rat” value (tampon granuloma in rat; effective dose of 64 mg/kg, compared with the blank model group) was “could significantly inhibit tampon granuloma in rat”, the “GranuLoma (mg)/Weight (100 g)” value (tampon granuloma in rat; rat, 64 mg/kg, injection) was 0.23 ± 0.05 mg/100 g and the “PI (%)” value (tampon granuloma in rat; rat, 64 mg/kg, injection) was 55.77%. The “Weight gain” value (tampon granuloma in rat; rat, in vivo, 64 mg/kg) was 32.16 ± 10.13 g and the “therapeutic effect on diabetic retinopathy” value [3] was “a certain therapeutic effect on diabetic retinopathy”.
